Measurements as given in patent publication US20180320177A1, “COMPOSITIONS AND METHODS FOR THE TREATMENT OF LIVER FIBROSIS” (UNIVERSITY OF CONNECTICUT, priority 2015, published 2018).

Legend:
HMGB2 protein [1] = experiment: Inhibition of HMGB2 protein by miRNAs in human and mouse cells; assay type: cell-based
Procedure: (§1) Western Blotting: Total protein lysates were prepared from livers and cells in lysis buffer containing 50 mM Tris, pH 8.0, 1% Nonidet™ P-40, 150 mM NaCl, 0.5% sodium deoxycholate, 0.1% SDS with protease inhibitors (Thermo Fisher Scientific) and subjected to immunoblotting. Nuclear and cytoplasmic subcellular fractions were prepared using NE-PER nuclear and cytoplasmic extraction reagents (Pierce) according to the manufacturer's instructions. The blot was incubated with a primary antibody, followed by a secondary antibody conjugated to horseradish peroxidase. ECL kit (Pierce) was used to detect the reactivity. The following antibodies were obtained from Cell Signaling Technology: HMGB2, HMGB1, AKT, p-AKT, mTOR, p-mTOR, ERK1/2, pERK1/2, Raptor, Rictor, p53, p21, p-Bad, Smad4, p-Smad2/3, Lamin A/C, a-SMA, MMP2, MMP9, TIMP1, RhoA, Rho-GTP, Cdc42, Rac1/2/3. Anti-HA antibody and anti-beta actin antibody were purchased from Sigma and Santa Cruz Biotechnology, respectively.
(§2) Cell culture, Cell transfection:HEK293T, Hela, Hep3B and MHCC97H cells were cultured and transfected using X-tremeGENE™ HP DNA transfection reagent (Roche) as described previously. CGR8 ES cells were cultured on 0.1% gelatin coated tissue-culture dish in knockout DMEM medium containing 15% ES qualified-Fetal Bovine Serum, 2 mM L-glutamin, 0.1 mM NEAA, 0.1 mM β-mercaptoethanol, 50 μg/ml penicillin-streptomycin and 10 ng/ml Leukemia inhibitory factor (LIF). TIC cells were cultured in DMEM-F12 medium containing Embryomax nucleotides, 2 mM L-glutamin, 0.1 mM NEAA, 20 ng/ml mouse EGF, 50 μg/ml penicillin-streptomycin and […].
We identified conserved binding sites for miR-539, miR-543, miR-181c, and miR-23α in human and mouse HMGB2 3′UTRs (not sho4wn). We tested the inhibition of HMGB2 protein by these miRNAs in both human and mouse cells. […]

CGR8 ES cells [2] = experiment: qPCR of ES markers and three-germ layer genes in CGR8 ES cells and EBs; assay type: cell-based, mouse; conditions: miR-127 lentivirus versus GFP; CGR8 ES cells and 4d EBs
Procedure: RNA Isolation and Analysis: RNA was isolated using TRIzol® (Thermo Fisher) according to the manufacturer's instructions. For quantitative real time RT-PCR (q-PCR), RNA was reverse transcribed using iScript™ cDNA Synthesis Kit (Bio-Rad). The resultant cDNA was amplified and quantified using SsoAdvance™ Universal SYBR® Green Supermix (Bio-Rad) in CFX384 Touch™ Real-Time PCR Detection System (BioRad). qPCR was performed in triplicate for each sample and repeated at three times. Ct values were used to calculate the relative expression level normalized to the levels of Hprt1 or beta-actin expression.
(§3) ES cells EB formation and TICs spheroid assay: CGR8 ES cells were trypsinized into single cells and cultured in ES medium devoid of LIF in hanging drops (900 cells per EB) for 2 d and transferred to ultralow attachment plate for a further 2 d suspension culture. Then, EBs were plated onto gelatin coated tissue-culture plate for further 7 d spontaneously differentiation.
(§4) Right, western blot of HMGB2, RhoA, CDC42, Rac1/2/3 in TIC cells which were infected with miR-127 or GFP lentivirus.

MMP and Rho signaling = experiment: Western blot of MMP and Rho signaling in TIC cells; assay type: cell-based; conditions: TIC cells, miR-127 lentivirus versus GFP (FIG. 15B)
Procedure: as §1
Cell Lines The LX-2 human stellate cell line was maintained in Dulbecco's Modified Eagle's Medium (DMEM) supplemented with 2% fetal bovine serum (FBS), 100 IU/ml penicillin, and 100 μg/ml streptomycin. Human hepatocellular carcinoma (HCC) MHCC97H cells were maintained in DMEM supplemented with 10% FBS, 100 IU/ml penicillin, and 100 μg/ml streptomycin, 1 mM HEPES, 1 mM sodium pyruvate, 2 mM L-glutamine. Tumor-initiating (TIC) cells were obtained from Dr. Hidekazu Tsukamoto at University of Southern California and were maintained in 1:1 DMEM:F12 supplement with 100 U/ml penicillin and 100 μg/ml streptomycin, 2 mM glutamine, 20 ng/ml mouse EGF, 10 nM dexamethasone, 1× embryomax nucleotides. All the cells were maintained at 37° C. humidified atmosphere with 5% CO2. TIC cells were infected with Hmgb2 shRNA lentivirus for 48 hr, and treated with 500 ng/ml puromycin for 2 weeks. The stable cells were used for migration and invasion assay, as well as western blot.

HMGB2 3′UTR = HMGB2 3′UTR luciferase reporter assay in HEK293T cells; assay type: cell-based, human; conditions: 0, 75 or 150 ng miR-127 (FIG. 12A-12B)
Procedure: Luciferase reporter assay: 48 h after transfection with luciferase reporter plasmid and Renilla plasmid, cells were harvested and analyzed with the Dual-Luciferase reporter assay system (Promega) as described. All assays were done in triplicates, and all values were normalized for transfection efficiency against Renilla luciferase activities.
FIG. 12A is a sequence alignment of miR-127 and the 3′-UTR of HMGB2 in human, mouse and rat. The seed match region is indicated by underline. mut, mutant FIG. 12B is a Luciferase reporter assay. Left, HEK293T cells were transfected with HMGB2 3′UTR luciferase reporter with 0, 75 or 150 ng miR-127; Middle, HEK293T cells were transfected with wild-type or mutant HMGB2 3′UTR with or without 150 ng miR-127. Right, HEK293T cells were transfected with HMGB2 3′UTR with or without miR-127 antagomir. Luciferase activity was normalized to Renilla activity. In FIG. 12C, Western blotting was performed to determine endogenous HMGB2 protein in Hela cells that were transfected with pTarget, pTarget-miR-433, or pTarget-miR-127. β-Actin served as an internal control. In FIG. 12D, Left, western blot was performed to determine HMGB2 and CREB protein level in MHCC97H cells transfected with miR-127 for 24 hrs. Right, qPCR analysis of miR-127 level in MHCC97 cells transfected with miR-127 for 0, 24, 48 hrs. […]

HMGB2 protein [3] = experiment: Western blot of HMGB2 protein in HCC cells transfected with miR-127; assay type: cell-based, human; conditions: HCC cells transfected with miR-127 (FIGS. 12C-F)
Procedure: as §1
Cell culture, Cell transfection:HEK293T, Hela, Hep3B and MHCC97H cells were cultured and transfected using X-tremeGENE™ HP DNA transfection reagent (Roche) as described previously. […]

TIC cells = experiment: TIC cell spheroid assay; assay type: cell-based; conditions: TIC cells infected with miR-127 lentivirus (FIG. 15C)
Procedure: TIC cells were trypsinized into single cells and 1000 cells were suspended in serum free TIC medium with 1% methylcellulose supplemented with B27, 20 ng/ml EGF and 20 ng/ml FGF in each well of 96-well ultralow attachment plate.

CGR8 ES cells [4] = experiment: CGR8 ES cell differentiation and EB formation; assay type: cell-based, mouse; conditions: knockdown of HMGB2 (summary)
Procedure: as §2, §3
FIGS. 10A-C show the establishment of CGR8 cell culture and differentiation. […] Undifferentiated feeder-free CGR8 ES cells were maintained on 0.1% gelatin coated 6-cm tissue-culture dish in ES medium containing 10 ng/ml Leukemia inhibitory factor (LIF). For EB formation, CGR8 ES cells were trypsinized into single cells and cultured in ES medium devoid of LIF in hanging drops (900 cells per EB) for 2 d and in suspension culture for a further 2 d. Then, EBs were transferred onto gelatin coated tissue-culture plate for further spontaneously differentiation. ES withdraw LIF 2d, CGR8 ES cells were cultured in ES medium devoid of LIF for 2 d.
FIG. 14A is Left, Western blot of HMGB2 and SOX2 protein in HEK293T cells transfected with 0.5 μg […] expression plasmid and 0, 1 or 2 μg Flag-HMGB2 expression plasmid. Right, Western blot of HMGB2 and OCT4 protein in HEK293T cells transfected with 0.5 μg HA-OCT4 expression plasmid and 0, 1 or 2 μg Flag-HMGB2 expression plasmid. […] CGR8 cells were lysed, co-immunoprecipitated with OCT4 antibody, followed by Western blot with HMGB2 or OCT4 antibodies. FIG. 14 C is a luciferase reporter assay. HepG2 cells were infected with AAV8-GFP or AAV8-HMGB2 24 hrs before being transfected with 6*OS luciferase reporter and OCT4, SOX2 expression plasmids alone or in combination.

HMGB2 protein [5] = experiment: Western blot of HMGB2 in TIC cells infected with miR-127 lentivirus; assay type: cell-based; conditions: miR-127 lentivirus versus GFP (FIG. 15B)
Procedure: as §1, §4

[6] = miRNA overexpression, Huh7, HEK293T, Hepa1, or TIC (FIG. 11)

B1: miR-539: microRNA, accession number NR_030256.1, SEQ ID NO: 5 (nucleic acid, listed as Homo sapiens)
chain: ATACTTGAGGAGAAATTATCCTTGGTGTGTTCGCTTTATTTATGATGAATCATACAAGGACAATTTCTTTTTGAGTAT
modifications: expressed or natural sequence
HMGB2 protein (HMGB2 protein [1]; [6]): decreased | HMGB2 protein (HMGB2 protein [1]; only in Huh7): inhibited

B2: miR-543: microRNA, accession number NR_030619.1, SEQ ID NO: 6 (nucleic acid, listed as Homo sapiens)
chain: TACTTAATGAGAAGTTGCCCGTGTTTTTTTCGCTTTATTTGTGACGAAACATTCGCGGTGCACTTCTTTTTCAGTATC
modifications: expressed or natural sequence
HMGB2 protein (HMGB2 protein [1]; [6]): decreased

B3: miR-127: microRNA, accession number NR_029696.1, SEQ ID NO: 4; targets the HMGB2 3′UTR (nucleic acid, listed as Homo sapiens)
chain: TGTGATCACTGTCTCCAGCCTGCTGAAGCTCAGAGGGCTCTGATTCAGAAAGATCATCGGATCCGTCTGAGCTTGGCTGGTCGGAAGTCTCATCATC
modifications: expressed or natural sequence
differentiation markers (Bmp5, Foxa2) (CGR8 ES cells [2]): increases | stem cell marker (Oct4, Nanog, Sox2) expression (CGR8 ES cells [2]): decreases | Rhos/CDC42/Rac signaling (MMP and Rho signaling): downregulates | targeting of HMGB2 3′UTR (luciferase reporter) (HMGB2 3′UTR): targets the HMGB2 3′UTR | HMGB2 protein (HMGB2 protein [3]): decreases HMGB2 protein | spheroid formation (TIC cells): downregulates | CGR8 differentiation (CGR8 ES cells [4]): promotes CGR8 differentiation | HMGB2 protein (HMGB2 protein [5]): downregulates
